B1: HDV Ribozyme (parent)
chain: GGCCGGCAUGGUCCCAGCCUCCUCGCUGGCGCCGGCUGGGCAACAUUCCGAGGGGACCGUCCCCUCGGUAAUGGCGAAUGGGACCCA

The variants in the series derive from B1. Kind of series: self-cleavage, relative activity (ratio to wild type); higher = more cleavage; co-transcriptional.
In the case of GGCCGGCAUGGACCCAGCCUCCUCGCUGGCGCCGGCUGGGCAACAUUCCGAGGGGACCGUCCCCUCGGUAAUGGCGAAUGGGACCCU [U12A A87U], the self-cleavage came to 0.262.
Next, GGCCGGCAUGGACCCAGCCUCCUCGCUGGCGCCGGCUGGGCAACAUUCCGAGGGGACCGUCCCCUCGGUAAUGGCGAAUGGGACCCG [U12A A87G]: 0.115; GGCCGGCAUGGACCCAGCCUCCUCGCUGGCGCCGGCUGGGCAACAUUCCGAGGGGACCGUCCCCUCGGUAAUGGCGAAUGGGACCCC [U12A A87C]: 0.251.
To GGCCGGCAUGGACUCAGCCUCCUCGCUGGCGCCGGCUGGGCAACAUUCCGAGGGGACCGUCCCCUCGGUAAUGGCGAAUGGGACCCA [U12A C14U] belongs 0.332; to GGCCGGCAUGGACCCAGCCUCCUCGCUGGCGCCGGCUGGGCAACAUUACGAGGGGACCGUCCCCUCGGUAAUGGCGAAUGGGACCCA [U12A C48A], 0.244.
Next, GGCCGGCAUGGACCCAGCCUCCUCGCUGGCGCCGGCUGGGCAACAUUUCGAGGGGACCGUCCCCUCGGUAAUGGCGAAUGGGACCCA [U12A C48U]: 0.277; GGCCGGCAUGGACCCAGCCUCCUCGCUGGGGCCGGCUGGGCAACAUUCCGAGGGGACCGUCCCCUCGGUAAUGGCGAAUGGGACCCA [U12A C30G]: 0.131.
On to GGCCGGCAUGGACCCAGCCUCCUCGCUGGAGCCGGCUGGGCAACAUUCCGAGGGGACCGUCCCCUCGGUAAUGGCGAAUGGGACCCA [U12A C30A], for which the self-cleavage amounted to 0.0652.
To GGCCGGCAUGGACCCAGCGUCCUCGCUGGCGCCGGCUGGGCAACAUUCCGAGGGGACCGUCCCCUCGGUAAUGGCGAAUGGGACCCA [U12A C19G] belongs 0; to GGCCGGCAUGGACCCAGCCUCUUCGCUGGCGCCGGCUGGGCAACAUUCCGAGGGGACCGUCCCCUCGGUAAUGGCGAAUGGGACCCA [U12A C22U], 0.0426.
To GGCCGGCAUGGACCCAGCCUCAUCGCUGGCGCCGGCUGGGCAACAUUCCGAGGGGACCGUCCCCUCGGUAAUGGCGAAUGGGACCCA [U12A C22A] belongs 0; to GGCCGGCAUGGACCCAUCCUCCUCGCUGGCGCCGGCUGGGCAACAUUCCGAGGGGACCGUCCCCUCGGUAAUGGCGAAUGGGACCCA [U12A G17U], 0.108; to GGCCGGCAUGGACCCAGCCUCCUCGCUGGCGCUGGCUGGGCAACAUUCCGAGGGGACCGUCCCCUCGGUAAUGGCGAAUGGGACCCA [U12A C33U], 0.44.
Consider GGCCGGCAUGGACCCAGCCUCCUCGCUGGCGCAGGCUGGGCAACAUUCCGAGGGGACCGUCCCCUCGGUAAUGGCGAAUGGGACCCA [U12A C33A], for which the self-cleavage was found to be 0.0604.
To GGCCGGCAUGGACCCAGCCUCCUCGCUUGCGCCGGCUGGGCAACAUUCCGAGGGGACCGUCCCCUCGGUAAUGGCGAAUGGGACCCA [U12A G28U] belongs 0.181; to GGCCGGCAUGGACCCAGCCUCCUCGCUAGCGCCGGCUGGGCAACAUUCCGAGGGGACCGUCCCCUCGGUAAUGGCGAAUGGGACCCA [U12A G28A], 0.0314; to GGCCGGCAUGGACCCAGCCUCCUCGCUGGCGCCGGCUGGGCAACAUUCCGAGGGGACCGUCCCGUCGGUAAUGGCGAAUGGGACCCA [U12A C64G], 0.437.
Next, GGCCGGCAUGGACCCAGUCUCCUCGCUGGCGCCGGCUGGGCAACAUUCCGAGGGGACCGUCCCCUCGGUAAUGGCGAAUGGGACCCA [U12A C18U]: 0.217; GGCCGGCAUGGACCCAGACUCCUCGCUGGCGCCGGCUGGGCAACAUUCCGAGGGGACCGUCCCCUCGGUAAUGGCGAAUGGGACCCA [U12A C18A]: 0.0604; GGCCGGCAUGGACCCAGCCUCCUCGGUGGCGCCGGCUGGGCAACAUUCCGAGGGGACCGUCCCCUCGGUAAUGGCGAAUGGGACCCA [U12A C26G]: 0.609.
To GGCCGGCAUGGACCCAGCCUCCUGGCUGGCGCCGGCUGGGCAACAUUCCGAGGGGACCGUCCCCUCGGUAAUGGCGAAUGGGACCCA [U12A C24G] belongs 0.0437; to GGCCGGCAUGGACCCAGCCUCCUUGCUGGCGCCGGCUGGGCAACAUUCCGAGGGGACCGUCCCCUCGGUAAUGGCGAAUGGGACCCA [U12A C24U], 0.135.
For GGCCGGCAUGGACCCAGCCUCCUCGCUGGCGCCGGCUGGGCAACAUUCGGAGGGGACCGUCCCCUCGGUAAUGGCGAAUGGGACCCA [U12A C49G], the self-cleavage amounted to 0.115.
Next, GGCCGGCAUGGACCCAGCCUCCUCGCUGGCGCCGGCUGGGCAACAUUCCGAGGGGACCGUUCCCUCGGUAAUGGCGAAUGGGACCCA [U12A C61U]: 0.469.
Next, GGCCGGCAUGGACCCAGCCUCCUCGCUGGCGCCGGCUGGGCAACAUUCCGAGGGGACCGUGCCCUCGGUAAUGGCGAAUGGGACCCA [U12A C61G]: 0.158; GGCCGGCAUGGACCCAGCCUCCUCGCUGGCGCCGGCUGGUCAACAUUCCGAGGGGACCGUCCCCUCGGUAAUGGCGAAUGGGACCCA [U12A G40U]: 0.111.
To GGCCGGCAUGGACCCAGCCUCCUCGCUGGCGCCGGCUGGCCAACAUUCCGAGGGGACCGUCCCCUCGGUAAUGGCGAAUGGGACCCA [U12A G40C] belongs 0.219; to GGCCGGCAUGGACCCAGCCUCCUCGCUGGCGCCGGCUGGACAACAUUCCGAGGGGACCGUCCCCUCGGUAAUGGCGAAUGGGACCCA [U12A G40A], 0.374; to GGCCGGCAUGGACCCAGCCUUCUCGCUGGCGCCGGCUGGGCAACAUUCCGAGGGGACCGUCCCCUCGGUAAUGGCGAAUGGGACCCA [U12A C21U], 0.0831.
With GGCCGGCAUGGACCCAGCCUGCUCGCUGGCGCCGGCUGGGCAACAUUCCGAGGGGACCGUCCCCUCGGUAAUGGCGAAUGGGACCCA [U12A C21G], the self-cleavage was 0.237.
For the variant GGCCGGCAUGGACCCAGCCUCCUCGCUGGCGCCGGCUUGGCAACAUUCCGAGGGGACCGUCCCCUCGGUAAUGGCGAAUGGGACCCA [U12A G38U], the self-cleavage is 0.0277.
To GGCCGGCAUGGACCCAGCCUCCUCGCUGGCGCCGGAUGGGCAACAUUCCGAGGGGACCGUCCCCUCGGUAAUGGCGAAUGGGACCCA [U12A C36A] belongs 0.0992.

Values taken from the RNAGym collection of RNA variant scans (doi:10.7554/elife.80360).
